Tests used:
[1] = test system: HeLa Kyoto; assay: solubility in G1/S (NP-40 vs SDS abundance) (log2 ratio); higher = more soluble; settings: cell cycle stage: G1/S
[2] = test system: HeLa Kyoto; assay: solubility change mitosis vs G1/S (difference of NP-40 vs SDS log2 ratios) (log2 ratio difference); higher = more soluble in mitosis
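Throughout, for solubility change mitosis vs G1/S (difference of NP-40 vs SDS log2 ratios): synchronized HeLa Kyoto cells (double thymidine block for G1/S, nocodazole release for mitosis), protein amounts in NP-40 versus SDS lysates quantified by mass spectrometry, three biological replicates.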
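Throughout, for solubility in G1/S (NP-40 vs SDS abundance): HeLa Kyoto cells arrested at G1/S by double thymidine block, proteins quantified by TMT10plex mass spectrometry in mild NP-40 versus SDS extracts, three biological replicates.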

Sequence: MPKIVLNGVTVDFPFQPYKCQQEYMTKVLECLQQKVNGILESPTGTGKTLCLLCTTLAWREHLRDGISARKIAERAQGELFPDRALSSWGNAAAAAGDPIACYTDIPKIIYASRTHSQLTQVINELRNTSYRPKVCVLGSREQLCIHPEVKKQESNHLQIHLCRKKVASRSCHFYNNVEEKSLEQELASPILDIEDLVKSGSKHRVCPYYLSRNLKQQADIIFMPYNYLLDAKSRRAHNIDLKGTVVIFDEAHNVEKMCEESASFDLTPHDLASGLDVIDQVLEEQTKAAQQGEPHPEFSADSPSPGLNMELEDIAKLKMILLRLEGAIDAVELPGDDSGVTKPGSYIFELFAEAQITFQTKGCILDSLDQIIQHLAGRAGVFTNTAGLQKLADIIQIVFSVDPSEGSPGSPAGLGALQSYKVHIHPDAGHRRTAQRSDAWSTTAARKRGKVLSYWCFSPGHSMHELVRQGVRSLILTSGTLAPVSSFALEMQIPFPVCLENPHIIDKHQIWVGVVPRGPDGAQLSSAFDRRFSEECLSSLGKALGNIARVVPYGLLIFFPSYPVMEKSLEFWRARDLARKMEALKPLFVEPRSKGSFSETISAYYARVAAPGSTGATFLAVCRGKASEGLDFSDTNGRGVIVTGLPYPPRMDPRVVLKMQFLDEMKGQGGAGGQFLSGQEWYRQQASRAVNQAIGRVIRHRQDYGAVFLCDHRFAFADARAQLPSWVRPHVRVYDNFGHVIRDVAQFFRVAERTMPAPAPRATAPSVRGEDAVSEAKSPGPFFSTRKAKSLDLHVPSLKQRSSGSPAAGDPESSLCVEYEQEPVPARQRPRGLLAALEHSEQRAGSPGEEQAHSCSTLSLLSEKRPAEEPRGGRKKIRLVSHPEEPVAGAQTDRAKLFMVAVKQELSQANFATFTQALQDYKGSDDFAALAACLGPLFAEDPKKHNLLQGFYQFVRPHHKQQFEEVCIQLTGRGCGYRPEHSIPRRQRAQPVLDPTGRTAPDPKLTVSTAAAQQLDPQEHLNQGRPHLSPRPPPTGDPGSQPQWGSGVPRAGKQGQHAVSAYLADARRALGSAGCSQLLAALTAYKQDDDLDKVLAVLAALTTAKPEDFPLLHRFSMFVRPHHKQRFSQTCTDLTGRPYPGMEPPGPQEERLAVPPVLTHRAPQPGPSRSEKTGKTQSKISSFLRQRPAGTVGAGGEDAGPSQSSGPPHGPAASEWGL [RTEL1]
- solubility in G1/S (log2) [1]: -0.0713
- solubility change mitosis (log2) [2]: -0.104

Sequence: MPPQLQETRMNRSIPVEVDESEPYPSQLLKPIPEYSPEEESEPPAPNIRNMAPNSLSAPTMLHNSSGDFSQAHSTLKLANHQRPVSRQVTCLRTQVLEDSEDSFCRRHPGLGKAFPSGCSAVSEPASESVVGALPAEHQFSFMEKRNQWLVSQLSAASPDTGHDSDKSDQSLPNASADSLGGSQEMVQRPQPHRNRAGLDLPTIDTGYDSQPQDVLGIRQLERPLPLTSVCYPQDLPRPLRSREFPQFEPQRYPACAQMLPPNLSPHAPWNYHYHCPGSPDHQVPYGHDYPRAAYQQVIQPALPGQPLPGASVRGLHPVQKVILNYPSPWDHEERPAQRDCSFPGLPRHQDQPHHQPPNRAGAPGESLECPAELRPQVPQPPSPAAVPRPPSNPPARGTLKTSNLPEELRKVFITYSMDTAMEVVKFVNFLLVNGFQTAIDIFEDRIRGIDIIKWMERYLRDKTVMIIVAISPKYKQDVEGAESQLDEDEHGLHTKYIHRMMQIEFIKQGSMNFRFIPVLFPNAKKEHVPTWLQNTHVYSWPKNKKNILLRLLREEEYVAPPRGPLPTLQVVPL [TRAF3IP2]
- solubility in G1/S (log2) [1]: -0.199
- solubility change mitosis (log2) [2]: 0.168

Sequence: MPVHSRGDKKETNHHDEMEVDYAENEGSSSEDEDTESSSVSEDGDSSEMDDEDCERRRMECLDEMSNLEKQFTDLKDQLYKERLSQVDAKLQEVIAGKAPEYLEPLATLQENMQIRTKVAGIYRELCLESVKNKYECEIQASRQHCESEKLLLYDTVQSELEEKIRRLEEDRHSIDITSELWNDELQSRKKRKDPFSPDKKKPVVVSGPYIVYMLQDLDILEDWTTIRKAMATLGPHRVKTEPPVKLEKHLHSARSEEGRLYYDGEWYIRGQTICIDKKDECPTSAVITTINHDEVWFKRPDGSKSKLYISQLQKGKYSIKHS [BRMS1L]
- solubility in G1/S (log2) [1]: -0.0165
- solubility change mitosis (log2) [2]: -0.0561

Sequence: MQVPQDGEDLAGQPWYHGLLSRQKAEALLQQNGDFLVRASGSRGGNPVISCRWRGSALHFEVFRVALRPRPGRPTALFQLEDEQFPSIPALVHSYMTGRRPLSQATGAVVSRPVTWQGPLRRSFSEDTLMDGPARIEPLRARKWSNSQPADLAHMGRSREDPAGMEASTMPISALPRTSSDPVLLKAPAPLGTVADSLRASDGQLQAKAPTKPPRTPSFELPDASERPPTYCELVPRVPSVQGTSPSQSCPEPEAPWWEAEEDEEEENRCFTRPQAEISFCPHDAPSCLLGPQNRPLEPQVLHTLRGLFLEHHPGSTALHLLLVDCQATGLLGVTRDQRGNMGVSSGLELLTLPHGHHLRLELLERHQTLALAGALAVLGCSGPLEERAAALRGLVELALALRPGAAGDLPGLAAVMGALLMPQVSRLEHTWRQLRRSHTEAALAFEQELKPLMRALDEGAGPCDPGEVALPHVAPMVRLLEGEEVAGPLDESCERLLRTLHGARHMVRDAPKFRKVAAQRLRGFRPNPELREALTTGFVRRLLWGSRGAGAPRAERFEKFQRVLGVLSQRLEPDR [SH2D3A]
- solubility in G1/S (log2) [1]: 0.386
- solubility change mitosis (log2) [2]: 0.0323

Sequence: MRDADADAGGGADGGDGRGGHSCRGGVDTAAAPAGGAPPAHAPGPGRDAASAARGSRMRPHIFTLSVPFPTPLEAEIAHGSLAPDAEPHQRVVGKDLTVSGRILVVRWKAEDCRLLRISVINFLDQLSLVVRTMQRFGPPVSR [LAGE3]
- solubility in G1/S (log2) [1]: 0.0355
- solubility change mitosis (log2) [2]: 0.0284

Sequence: MRPLDIVELAEPEEVEVLEPEEDFEQFLLPVINEMREDIASLTREHGRAYLRNRSKLWEMDNMLIQIKTQVEASEESALNHLQNPGDAAEGRAAKRCEKAEEKAKEIAKMAEMLVELVRRIEKSESS [MRFAP1]
- solubility in G1/S (log2) [1]: 0.156
- solubility change mitosis (log2) [2]: 0.549

Sequence: MRPWTGSWRWIMLILFAWGTLLFYIGGHLVRDNDHPDHSSRELSKILAKLERLKQQNEDLRRMAESLRIPEGPIDQGPAIGRVRVLEEQLVKAKEQIENYKKQTRNGLGKDHEILRRRIENGAKELWFFLQSELKKLKNLEGNELQRHADEFLLDLGHHERSIMTDLYYLSQTDGAGDWREKEAKDLTELVQRRITYLQNPKDCSKAKKLVCNINKGCGYGCQLHHVVYCFMIAYGTQRTLILESQNWRYATGGWETVFRPVSETCTDRSGISTGHWSGEVKDKNVQVVELPIVDSLHPRPPYLPLAVPEDLADRLVRVHGDPAVWWVSQFVKYLIRPQPWLEKEIEEATKKLGFKHPVIGVHVRRTDKVGTEAAFHPIEEYMVHVEEHFQLLARRMQVDKKRVYLATDDPSLLKEAKTKYPNYEFISDNSISWSAGLHNRYTENSLRGVILDIHFLSQADFLVCTFSSQVCRVAYEIMQTLHPDASANFHSLDDIYYFGGQNAHNQIAIYAHQPRTADEIPMEPGDIIGVAGNHWDGYSKGVNRKLGRTGLYPSYKVREKIETVKYPTYPEAEK [FUT8]
- solubility in G1/S (log2) [1]: -0.188
- solubility change mitosis (log2) [2]: -0.0307

Sequence: MRRAELAGLKTMAWVPAESAVEELMPRLLPVEPCDLTEGFDPSVPPRTPQEYLRRVQIEAAQCPDVVVAQIDPKKLKRKQSVNISLSGCQPAPEGYSPTLQWQQQQVAQFSTVRQNVNKHRSHWKSQQLDSNVTMPKSEDEEGWKKFCLGEKLCADGAVGPATNESPGIDYVQIGFPPLLSIVSRMNQATVTSVLEYLSNWFGERDFTPELGRWLYALLACLEKPLLPEAHSLIRQLARRCSEVRLLVDSKDDERVPALNLLICLVSRYFDQRDLADEPS [GEMIN2]
- solubility in G1/S (log2) [1]: 0.59
- solubility change mitosis (log2) [2]: 0.437

Sequence: MRRDERDAKAMRSLQPPDGAGSPPESLRNGYVKSCVSPLRQDPPRGFFFHLCRFCNVELRPPPASPQQPRRCSPFCRARLSLGALAAFVLALLLGAEPESWAAGAAWLRTLLSVCSHSLSPLFSIACAFFFLTCFLTRTKRGPGPGRSCGSWWLLALPACCYLGDFLVWQWWSWPWGDGDAGSAAPHTPPEAAAGRLLLVLSCVGLLLTLAHPLRLRHCVLVLLLASFVWWVSFTSLGSLPSALRPLLSGLVGGAGCLLALGLDHFFQIREAPLHPRLSSAAEEKVPVIRPRRRSSCVSLGETAASYYGSCKIFRRPSLPCISREQMILWDWDLKQWYKPHYQNSGGGNGVDLSVLNEARNMVSDLLTDPSLPPQVISSLRSISSLMGAFSGSCRPKINPLTPFPGFYPCSEIEDPAEKGDRKLNKGLNRNSLPTPQLRRSSGTSGLLPVEQSSRWDRNNGKRPHQEFGISSQGCYLNGPFNSNLLTIPKQRSSSVSLTHHVGLRRAGVLSSLSPVNSSNHGPVSTGSLTNRSPIEFPDTADFLNKPSVILQRSLGNAPNTPDFYQQLRNSDSNLCNSCGHQMLKYVSTSESDGTDCCSGKSGEEENIFSKESFKLMETQQEEETEKKDSRKLFQEGDKWLTEEAQSEQQTNIEQEVSLDLILVEEYDSLIEKMSNWNFPIFELVEKMGEKSGRILSQVMYTLFQDTGLLEIFKIPTQQFMNYFRALENGYRDIPYHNRIHATDVLHAVWYLTTRPVPGLQQIHNGCGTGNETDSDGRINHGRIAYISSKSCSNPDESYGCLSSNIPALELMALYVAAAMHDYDHPGRTNAFLVATNAPQAVLYNDRSVLENHHAASAWNLYLSRPEYNFLLHLDHVEFKRFRFLVIEAILATDLKKHFDFLAEFNAKANDVNSNGIEWSNENDRLLVCQVCIKLADINGPAKVRDLHLKWTEGIVNEFYEQGDEEANLGLPISPFMDRSSPQLAKLQESFITHIVGPLCNSYDAAGLLPGQWLEAEEDNDTESGDDEDGEELDTEDEEMENNLNPKPPRRKSRRRIFCQLMHHLTENHKIWKEIVEEEEKCKADGNKLQVENSSLPQADEIQVIEEADEEE [PDE3B]
- solubility in G1/S (log2) [1]: -0.122
- solubility change mitosis (log2) [2]: -0.0328

Sequence: MRRDVNGVTKSRFEMFSNSDEAVINKKLPKELLLRIFSFLDVVTLCRCAQVSRAWNVLALDGSNWQRIDLFDFQRDIEGRVVENISKRCGGFLRKLSLRGCLGVGDNALRTFAQNCRNIEVLNLNGCTKTTDATCTSLSKFCSKLRHLDLASCTSITNMSLKALSEGCPLLEQLNISWCDQVTKDGIQALVRGCGGLKALFLKGCTQLEDEALKYIGAHCPELVTLNLQTCLQITDEGLITICRGCHKLQSLCASGCSNITDAILNALGQNCPRLRILEVARCSQLTDVGFTTLARNCHELEKMDLEECVQITDSTLIQLSIHCPRLQVLSLSHCELITDDGIRHLGNGACAHDQLEVIELDNCPLITDASLEHLKSCHSLERIELYDCQQITRAGIKRLRTHLPNIKVHAYFAPVTPPPSVGGSRQRFCRCCIIL [FBXL20]
- solubility in G1/S (log2) [1]: -0.0856
- solubility change mitosis (log2) [2]: -0.0226

Sequence: MRRSLAPSQLAKRKPEGRSCDDEDWQPGLVTPRKRKSSSETQIQECFLSPFRKPLSQLTNQPPCLDSSQHEAFIRSILSKPFKVPIPNYQGPLGSRALGLKRAGVRRALHDPLEKDALVLYEPPPLSAHDQLKLDKEKLPVHVVVDPILSKVLRPHQREGVKFLWECVTSRRIPGSHGCIMADEMGLGKTLQCITLMWTLLRQSPECKPEIDKAVVVSPSSLVKNWYNEVGKWLGGRIQPLAIDGGSKDEIDQKLEGFMNQRGARVSSPILIISYETFRLHVGVLQKGSVGLVICDEGHRLKNSENQTYQALDSLNTSRRVLISGTPIQNDLLEYFSLVHFVNSGILGTAHEFKKHFELPILKGRDAAASEADRQLGEERLRELTSIVNRCLIRRTSDILSKYLPVKIEQVVCCRLTPLQTELYKRFLRQAKPAEELLEGKMSVSSLSSITSLKKLCNHPALIYDKCVEEEDGFVGALDLFPPGYSSKALEPQLSGKMLVLDYILAVTRSRSSDKVVLVSNYTQTLDLFEKLCRARRYLYVRLDGTMSIKKRAKVVERFNSPSSPDFVFMLSSKAGGCGLNLIGANRLVMFDPDWNPANDEQAMARVWRDGQKKTCYIYRLLSAGTIEEKIFQRQSHKKALSSCVVDEEQDVERHFSLGELKELFILDEASLSDTHDRLHCRRCVNSRQIRPPPDGSDCTSDLAGWNHCTDKWGLRDEVLQAAWDAASTAITFVFHQRSHEEQRGLR [RAD54L]
- solubility in G1/S (log2) [1]: -0.0919
- solubility change mitosis (log2) [2]: -0.192

Reference: the supplement of paper PMC5998384
